The conditions of this data set: Pseudomonas aeruginosa (strain ATCC 15692 / DSM 22644 / CIP 104116 / JCM 14847 / LMG 12228 / 1C / PRS 101 / PAO1), pH 7, Thermal, reversible: No, whole UniProt chain shown.

Where “and” joins values, the source holds several entries; their conditions need not be identical. Equal entries are not always repeated.

Broadly, the Tm is the temperature at which the thermal transition is half complete.

B1: Azurin wild type, P00282 (protein)
chain: MLRKLAAVSLLSLLSAPLLAAECSVDIQGNDQMQFNTNAITVDKSCKQFTVNLSHPGNLPKNVMGHNWVLSTAADMQGVVTDGMASGLDKDYLKPDDSRVIAHTKLIGSGEKDSVTFDVSKLKEGEQYMFFCTFPGHSALMKGTLTLK
Take B1: the melting temperature (Tm) (Absorbance, Phosphate 10 mM) turned out to be 78 °C. For the same protein, the “unfolding enthalpy (calorimetric)” value (DSC, Potassium phosphate 100 mM) is 141 kcal/mol and 130 kcal/mol and 136 kcal/mol.

(Values after FireProtDB (doi:10.1021/bi048926x).)
